Laboratory results reported in the supplement of paper PMC5998384.

Tests used:
[1] = test system: HeLa Kyoto; assay: melting temperature (median over replicates), in situ; higher = more thermally stable
[2] = test system: HeLa Kyoto; assay: solubility change mitosis vs G1/S (difference of NP-40 vs SDS log2 ratios) (log2 ratio difference); higher = more soluble in mitosis
[3] = test system: HeLa Kyoto; assay: solubility in G1/S (NP-40 vs SDS abundance) (log2 ratio); higher = more soluble; settings: cell cycle stage: G1/S
[4] = test system: HeLa Kyoto; assay: thermal stability score vs G1/S (z-score of summed log2 fold changes over temperatures); higher = more thermally stable than in G1/S
[5] = cell cycle stage: early G1 (4.5 h after nocodazole release)
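For melting temperature (median over replicates), in situ in this document: HeLa Kyoto cells synchronized by double thymidine or nocodazole block, proteins quantified by TMT10plex mass spectrometry, three independent biological replicates.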
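For solubility change mitosis vs G1/S (difference of NP-40 vs SDS log2 ratios) in this document: synchronized HeLa Kyoto cells (double thymidine block for G1/S, nocodazole release for mitosis), protein amounts in NP-40 versus SDS lysates quantified by mass spectrometry, three biological replicates.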
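For solubility in G1/S (NP-40 vs SDS abundance) in this document: HeLa Kyoto cells arrested at G1/S by double thymidine block, proteins quantified by TMT10plex mass spectrometry in mild NP-40 versus SDS extracts, three biological replicates.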
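For thermal stability score vs G1/S (z-score of summed log2 fold changes over temperatures) in this document: synchronized HeLa Kyoto cells, proteins quantified by TMT10plex mass spectrometry, three biological replicates, mitosis taken 0.5 h after nocodazole release, G1/S directly after double thymidine block.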

Row | Substance | melting temperature ([1]; cell cycle stage: G1/S) [°C] | melting temperature ([1]; cell cycle stage: mitosis) [°C] | solubility change mitosis (log2) [2] | solubility in G1/S (log2) [3] | thermal stability score [4, 5] | thermal stability score ([4]; cell cycle stage: mitosis)
1 | MSGPVPSRARVYTDVNTHRPREYWDYESHVVEWGNQDDYQLVRKLGRGKYSEVFEAINITNNEKVVVKILKPVKKKKIKREIKILENLRGGPNIITLADIVKDPVSRTPALVFEHVNNTDFKQLYQTLTDYDIRFYMYEILKALDYCHSMGIMHRDVKPHNVMIDHEHRKLRLIDWGLAEFYHPGQEYNVRVASRYFKGPELLVDYQMYDYSLDMWSLGCMLASMIFRKEPFFHGHDNYDQLVRIAKVLGTEDLYDYIDKYNIELDPRFNDILGRHSRKRWERFVHSENQHLVSPEALDFLDKLLRYDHQSRLTAREAMEHPYFYTVVKDQARMGSSSMPGGSTPVSSANMMSGISSVPTPSPLGPLAGSPVIAAANPLGMPVPAAAGAQQ [CSNK2A1] | 51.5 | 50.7 | 0.0535 | -0.00675 | 1.11 | 1.31
2 | MASTSRLDALPRVTCPNHPDAILVEDYRAGDMICPECGLVVGDRVIDVGSEWRTFSNDKATKDPSRVGDSQNPLLSDGDLSTMIGKGTGAASFDEFGNSKYQNRRTMSSSDRAMMNAFKEITTMADRINLPRNIVDRTNNLFKQVYEQKSLKGRANDAIASACLYIACRQEGVPRTFKEICAVSRISKKEIGRCFKLILKALETSVDLITTGDFMSRFCSNLCLPKQVQMAATHIARKAVELDLVPGRSPISVAAAAIYMASQASAEKRTQKEIGDIAGVADVTIRQSYRLIYPRAPDLFPTDFKFDTPVDKLPQL [GTF2B] | 49.7 | 49.4 | -0.111 | 0.251 | 2.28 | 4
3 | MATGQKLMRAVRVFEFGGPEVLKLRSDIAVPIPKDHQVLIKVHACGVNPVETYIRSGTYSRKPLLPYTPGSDVAGVIEAVGDNASAFKKGDRVFTSSTISGGYAEYALAADHTVYKLPEKLDFKQGAAIGIPYFTAYRALIHSACVKAGESVLVHGASGGVGLAACQIARAYGLKILGTAGTEEGQKIVLQNGAHEVFNHREVNYIDKIKKYVGEKGIDIIIEMLANVNLSKDLSLLSHGGRVIVVGSRGTIEINPRDTMAKESSIIGVTLFSSTKEEFQQYAAALQAGMEIGWLKPVIGSQYPLEKVAEAHENIIHGSGATGKMILLL [CRYZ] | 55.2 | 55 | -0.187 | 0.212 | -0.614 | -0.806
4 | MDPTAGSKKEPGGGAATEEGVNRIAVPKPPSIEEFSIVKPISRGAFGKVYLGQKGGKLYAVKVVKKADMINKNMTHQVQAERDALALSKSPFIVHLYYSLQSANNVYLVMEYLIGGDVKSLLHIYGYFDEEMAVKYISEVALALDYLHRHGIIHRDLKPDNMLISNEGHIKLTDFGLSKVTLNRDINMMDILTTPSMAKPRQDYSRTPGQVLSLISSLGFNTPIAEKNQDPANILSACLSETSQLSQGLVCPMSVDQKDTTPYSSKLLKSCLETVASNPGMPVKCLTSNLLQSRKRLATSSASSQSHTFISSVESECHSSPKWEKDCQESDEALGPTMMSWNAVEKLCAKSANAIETKGFNKKDLELALSPIHNSSALPTTGRSCVNLAKKCFSGEVSWEAVELDVNNINMDTDTSQLGFHQSNQWAVDSGGISEEHLGKRSLKRNFELVDSSPCKKIIQNKKTCVEYKHNEMTNCYTNQNTGLTVEVQDLKLSVHKSQQNDCANKENIVNSFTDKQQTPEKLPIPMIAKNLMCELDEDCEKNSKRDYLSSSFLCSDDDRASKNISMNSDSSFPGISIMESPLESQPLDSDRSIKESSFEESNIEDPLIVTPDCQEKTSPKGVENPAVQESNQKMLGPPLEVLKTLASKRNAVAFRSFNSHINASNNSEPSRMNMTSLDAMDISCAYSGSYPMAITPTQKRRSCMPHQQTPNQIKSGTPYRTPKSVRRGVAPVDDGRILGTPDYLAPELLLGRAHGPAVDWWALGVCLFEFLTGIPPFNDETPQQVFQNILKRDIPWPEGEEKLSDNAQSAVEILLTIDDTKRAGMKELKRHPLFSDVDWENLQHQTMPFIPQPDDETDTSYFEARNTAQHLTVSGFSL [MASTL] | 48.4 | 50.5 | -0.0152 | 0.0696 | 2.99 | 5.64
5 | MSDAAVDTSSEITTKDLKEKKEVVEEAENGRDAPANGNAENEENGEQEADNEVDEEEEEGGEEEEEEEEGDGEEEDGDEDEEAESATGKRAAEDDEDDDVDTKKQKTDEDD [PTMA] | 54.9 | 55.1 | -0.00535 | -1.5 | -0.717 | -1.69
6 | MSRGPEEVNRLTESTYRNVMEQFNPGLRNLINLGKNYEKAVNAMILAGKAYYDGVAKIGEIATGSPVSTELGHVLIEISSTHKKLNESLDENFKKFHKEIIHELEKKIELDVKYMNATLKRYQTEHKNKLESLEKSQAELKKIRRKSQGSRNALKYEHKEIEYVETVTSRQSEIQKFIADGCKEALLEEKRRFCFLVDKHCGFANHIHYYHLQSAELLNSKLPRWQETCVDAIKVPEKIMNMIEEIKTPASTPVSGTPQASPMIERSNVVRKDYDTLSKCSPKMPPAPSGRAYTSPLIDMFNNPATAAPNSQRVNNSTGTSEDPSLQRSVSVATGLNMMKKQKVKTIFPHTAGSNKTLLSFAQGDVITLLIPEEKDGWLYGEHDVSKARGWFPSSYTKLLEENETEAVTVPTPSPTPVRSISTVNLSENSSVVIPPPDYLECLSMGAAADRRADSARTTSTFKAPASKPETAAPNDANGTAKPPFLSGENPFATVKLRPTVTNDRSAPIIR [BAIAP2L1] | 52.7 | 54.1 | -0.0797 | 0.326 | 1.74 | 1.36
7 | MRVAGAAKLVVAVAVFLLTFYVISQVFEIKMDASLGNLFARSALDTAARSTKPPRYKCGISKACPEKHFAFKMASGAANVVGPKICLEDNVLMSGVKNNVGRGINVALANGKTGEVLDTKYFDMWGGDVAPFIEFLKAIQDGTIVLMGTYDDGATKLNDEARRLIADLGSTSITNLGFRDNWVFCGGKGIKTKSPFEQHIKNNKDTNKYEGWPEVVEMEGCIPQKQD [FAM3C] | 54.2 | 53.2 | 0.0546 | 0.634 | 0.362 | 0.765
8 | MNAAASSYPMASLYVGDLHSDVTEAMLYEKFSPAGPVLSIRVCRDMITRRSLGYAYVNFQQPADAERALDTMNFDVIKGKPIRIMWSQRDPSLRKSGVGNVFIKNLDKSIDNKALYDTFSAFGNILSCKVVCDENGSKGYAFVHFETQEAADKAIEKMNGMLLNDRKVFVGRFKSRKEREAELGAKAKEFTNVYIKNFGEEVDDESLKELFSQFGKTLSVKVMRDPNGKSKGFGFVSYEKHEDANKAVEEMNGKEISGKIIFVGRAQKKVERQAELKRKFEQLKQERISRYQGVNLYIKNLDDTIDDEKLRKEFSPFGSITSAKVMLEDGRSKGFGFVCFSSPEEATKAVTEMNGRIVGSKPLYVALAQRKEERKAHLTNQYMQRVAGMRALPANAILNQFQPAAGGYFVPAVPQAQGRPPYYTPNQLAQMRPNPRWQQGGRPQGFQGMPSAIRQSGPRPTLRHLAPTGSECPDRLAMDFGGAGAAQQGLTDSCQSGGVPTAVQNLAPRAAVAAAAPRAVAPYKYASSVRSPHPAIQPLQAPQPAVHVQGQEPLTASMLAAAPPQEQKQMLGERLFPLIQTMHSNLAGKITGMLLEIDNSELLHMLESPESLRSKVDEAVAVLQAHHAKKEAAQKVGAVAAATS [PABPC4] | 50.3 | 49.6 | 0.0456 | 0.0374 | -1.92 | -1.27
9 | MAATLGPLGSWQQWRRCLSARDGSRMLLLLLLLGSGQGPQQVGAGQTFEYLKREHSLSKPYQGVGTGSSSLWNLMGNAMVMTQYIRLTPDMQSKQGALWNRVPCFLRDWELQVHFKIHGQGKKNLHGDGLAIWYTKDRMQPGPVFGNMDKFVGLGVFVDTYPNEEKQQERVFPYISAMVNNGSLSYDHERDGRPTELGGCTAIVRNLHYDTFLVIRYVKRHLTIMMDIDGKHEWRDCIEVPGVRLPRGYYFGTSSITGDLSDNHDVISLKLFELTVERTPEEEKLHRDVFLPSVDNMKLPEMTAPLPPLSGLALFLIVFFSLVFSVFAIVIGIILYNKWQEQSRKRFY [LMAN2L] | 53.7 | 54.1 | -0.146 | -0.0714 | -0.409 | -1.27
10 | MYLQVETRTSSRLHLKRAPGIRSWSLLVGILSIGLAAAYYSGDSLGWKLFYVTGCLFVAVQNLEDWEEAIFDKSTGKVVLKTFSLYKKLLTLFRAGHDQVVVLLHDVRDVSVEEEKVRYFGKGYMVVLRLATGFSHPLTQSAVMGHRSDVEAIAKLITSFLELHCLESPTELSQSSDSEAGDPASQS [C17ORF62] | 55 | 55.1 | -0.128 | -0.124 | -1.46 | -0.834
11 | DIP2A | 51.3 | – | -0.0755 | -0.104 | 0.00154 | 0.398
12 | MAAAGPSTRASSAAAAAALSRRGRRGRCDETAAAKTGAPGPASGPSLLVLSPPLLQPPLPPRPEESGCAGCLEPPGEAAALPCGHSLCRGCAQRAADAAGPGCPRCRARGPGWARRRARDDGQADSEVLGECARRSQPERCRPRRDGGAAAAGPRPEQEPRAAPAEPDFIFRAPIKLSKPGELREEYESLRKLREEKLQEEKPSEDQIHKLLPEDTETGKRKMDEQKKRDEPLVLKTNLERCPARLSDSENEEPSRGQMTQTHRSAFVSKNNSYSLAFLAGKLNSKVERSQSCSDTAQERAKSRVRAVPGNKAKVTTMTPASNPIIGVLLSTQNNRCVSAPDLTIEKRLPFSSLSSLASLHKPERSVSPESNDSISEELNHFKPIVCSPCTPPKRLPDGRVLSPLIIKSTPRNLNRSLQKQTSYEASPRILKKWEQIFQERQIKKTLSKATLTSLAPEMGEELLGSEGIHSSKEKPLVAVNTRLSGGQVLSEYTGPTSADLDHFPSVSQTKAEQDSDNKSSTEIPLETCCSSELKGGGSGTSLEREQFEGLGSTPDAKLDKTCISRAMKITTVNSVLPQNSVLGGVLKTKQQLKTLNHFDLTNGVLVESLSEEPLPSLRRGRKRHCKTKHLEQNGSLKKLRQTSGEVGLAPTDPVLREMEQKLQQEEEDRQLALQLQRMFDNERRTVSRRKGSVDQYLLRSSNMAGAK [RNF169] | – | 51.8 | 0.36 | -0.158 | 0.359 | 0.101
13 | MNPTLILAAFCLGIASATLTFDHSLEAQWTKWKAMHNRLYGMNEEGWRRAVWEKNMKMIELHNQEYREGKHSFTMAMNAFGDMTSEEFRQVMNGFQNRKPRKGKVFQEPLFYEAPRSVDWREKGYVTPVKNQGQCGSCWAFSATGALEGQMFRKTGRLISLSEQNLVDCSGPQGNEGCNGGLMDYAFQYVQDNGGLDSEESYPYEATEESCKYNPKYSVANDTGFVDIPKQEKALMKAVATVGPISVAIDAGHESFLFYKEGIYFEPDCSSEDMDHGVLVVGYGFESTESDNNKYWLVKNSWGEEWGMGGYVKMAKDRRNHCGIASAASYPTV [CTSL] | 53.9 | 55 | 0.0996 | -0.176 | 1.47 | 1.22
14 | MANVGLQFQASAGDSDPQSRPLLLLGQLHHLHRVPWSHVRGKLQPRVTEELWQAALSTLNPNPTDSCPLYLNYATVAALPCRVSRHNSPSAAHFITRLVRTCLPPGAHRCIVMVCEQPEVFASACALARAFPLFTHRSGASRRLEKKTVTVEFFLVGQDNGPVEVSTLQCLANATDGVRLAARIVDTPCNEMNTDTFLEEINKVGKELGIIPTIIRDEELKTRGFGGIYGVGKAALHPPALAVLSHTPDGATQTIAWVGKGIVYDTGGLSIKGKTTMPGMKRDCGGAAAVLGAFRAAIKQGFKDNLHAVFCLAENSVGPNATRPDDIHLLYSGKTVEINNTDAEGRLVLADGVSYACKDLGADIILDMATLTGAQGIATGKYHAAVLTNSAEWEAACVKAGRKCGDLVHPLVYCPELHFSEFTSAVADMKNSVADRDNSPSSCAGLFIASHIGFDWPGVWVHLDIAAPVHAGERATGFGVALLLALFGRASEDPLLNLVSPLGCEVDVEEGDLGRDSKRRRLV [NPEPL1] | 58.3 | 58.8 | -0.0373 | 0.106 | -4.2 | -3.53
